# Measurements from patent US20220348648A1 (published 2022).
# Where two headings read alike, the source gives them in different places.
# T1: Recombinant Human DLL3 Protein (amino acids Ala27-Ala479, Cat #9749-DL, R&D Systems) (UniProt Q9NYJ7 27-479)
# T1 chain: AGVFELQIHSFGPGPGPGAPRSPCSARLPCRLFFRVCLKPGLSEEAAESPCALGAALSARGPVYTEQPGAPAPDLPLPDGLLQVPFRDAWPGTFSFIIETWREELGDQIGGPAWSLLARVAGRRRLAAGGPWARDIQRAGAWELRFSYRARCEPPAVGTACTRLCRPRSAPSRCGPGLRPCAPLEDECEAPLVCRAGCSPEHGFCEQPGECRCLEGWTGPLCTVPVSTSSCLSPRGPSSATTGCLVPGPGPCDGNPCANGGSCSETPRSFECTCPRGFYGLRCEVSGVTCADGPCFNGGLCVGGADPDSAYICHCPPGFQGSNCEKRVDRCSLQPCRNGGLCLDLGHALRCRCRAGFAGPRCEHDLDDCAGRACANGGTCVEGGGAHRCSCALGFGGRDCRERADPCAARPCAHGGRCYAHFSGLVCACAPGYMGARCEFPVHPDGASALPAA
# B1: 10-O18-A (antibody, V domains shown)
# VH: QVQLQESGPGLVKPSETLSLTCTVSGGSINSYYWSWIRQPPGKGLEWIGYIFYSGITNYNPSLKSRVTISLDTSKNQFSLKLSSVTAADTAVYYCARIGVAGFYFDYWGQGTLVTVSS
# VL: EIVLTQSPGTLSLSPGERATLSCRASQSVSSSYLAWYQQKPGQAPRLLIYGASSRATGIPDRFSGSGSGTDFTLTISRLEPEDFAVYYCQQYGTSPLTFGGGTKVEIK
# B2: 7-I1-B (antibody, V domains shown)
# VH: EVQLVESGGGLVKPGGSLRLSCAASGFTFSNTWMSWVRQAPGKGLEWVGRIKSKSDGGTTDYAAPVKGRFTISRDDSKNTLYLQMNSLKTEDTAVYYCTQYYWNSFDYWGQGTLVTVSS
# VL: not shown
# B3: 6-G23-F (antibody, V domains shown)
# VH: QVQLVQSGAEVKKPGASVKVSCKASGYTFTSYYIHWVRQAPGQGLEWMGIIDPSDGSTNYAQKFQGRVTMTRDTSTSTVYMELSSLRSEDTAVYYCARDREYNYYGLDVWGQGTTVTVSS
# VL: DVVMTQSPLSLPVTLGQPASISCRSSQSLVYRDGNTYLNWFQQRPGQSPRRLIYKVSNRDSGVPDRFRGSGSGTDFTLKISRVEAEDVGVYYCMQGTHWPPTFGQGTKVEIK
# B4: 2-C8-A (antibody, V domains shown)
# VH: EVQLVESGGGLVQPGGSQRLSCAASGFTFSSYWMNWVRQAPGKGLEWVANIKEDGSEKYYVDSVKGRFTISRDNAKNSLYLQMNSLRAEDTAVYYCARDPGWAPFDYWGQGTLVTVSS
# VL: DIQMSQSPSSLSASVGDRVTITCRASQGISNYLAWFQQKPGKAPKSLIYAASSLQSGVPSKFSGSGSGTDFTLAISSLQPEDFATYYCQQYNSFPYTFGQGTTLEIK
# Assays:
# Test in all cases: BLI (Octet HTX)
# [1] = molecular target: T1, Recombinant Human DLL3 Protein (amino …)
# [2] = molecular target: T1, Recombinant Human DLL3 Protein (amino …)
# [3] = molecular target: T1, Recombinant Human DLL3 Protein (amino …)
Binder,Kd [1],Kd [2],Kd [3]
B1,0.602 nM,0.62 nM,
B2,,0.68 nM,0.686 nM
B3,,0.16 nM,0.16 nM
B4,0.668 nM,0.668 nM,
